Data as given in doi:10.1101/2022.09.11.507496.

Target: VSV:H2-K^b (mouse | not stated) (UniProt P03521)
Test: micropipette adhesion frequency

Chain of UniProt P03521 (P03521 whole entry, looked up): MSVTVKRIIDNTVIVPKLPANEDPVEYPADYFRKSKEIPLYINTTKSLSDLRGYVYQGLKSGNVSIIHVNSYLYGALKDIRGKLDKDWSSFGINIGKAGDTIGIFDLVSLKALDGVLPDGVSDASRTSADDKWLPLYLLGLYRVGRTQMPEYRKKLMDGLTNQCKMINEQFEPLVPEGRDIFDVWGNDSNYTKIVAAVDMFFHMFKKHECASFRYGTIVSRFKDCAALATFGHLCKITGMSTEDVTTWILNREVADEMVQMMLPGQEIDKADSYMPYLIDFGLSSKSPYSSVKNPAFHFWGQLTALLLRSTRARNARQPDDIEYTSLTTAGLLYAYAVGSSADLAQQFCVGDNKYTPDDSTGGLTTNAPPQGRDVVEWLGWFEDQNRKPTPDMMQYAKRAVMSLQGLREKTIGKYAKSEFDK

Question: With “CD8 on CD8+ T cells of OT-I mice (from UniProt P01731;P10300) (receptor)” as the substance, how does the fold smaller 2D affinity than TCR–pMHC read?
Answer: 500 fold
